Measured values from publication doi:10.1101/2021.11.23.469727 (bioRxiv, 2021).

T1: Halo:pdf2K107E (Arabidopsis thaliana, UniProt Q93V99 1-743, K107E)
T1 sequence: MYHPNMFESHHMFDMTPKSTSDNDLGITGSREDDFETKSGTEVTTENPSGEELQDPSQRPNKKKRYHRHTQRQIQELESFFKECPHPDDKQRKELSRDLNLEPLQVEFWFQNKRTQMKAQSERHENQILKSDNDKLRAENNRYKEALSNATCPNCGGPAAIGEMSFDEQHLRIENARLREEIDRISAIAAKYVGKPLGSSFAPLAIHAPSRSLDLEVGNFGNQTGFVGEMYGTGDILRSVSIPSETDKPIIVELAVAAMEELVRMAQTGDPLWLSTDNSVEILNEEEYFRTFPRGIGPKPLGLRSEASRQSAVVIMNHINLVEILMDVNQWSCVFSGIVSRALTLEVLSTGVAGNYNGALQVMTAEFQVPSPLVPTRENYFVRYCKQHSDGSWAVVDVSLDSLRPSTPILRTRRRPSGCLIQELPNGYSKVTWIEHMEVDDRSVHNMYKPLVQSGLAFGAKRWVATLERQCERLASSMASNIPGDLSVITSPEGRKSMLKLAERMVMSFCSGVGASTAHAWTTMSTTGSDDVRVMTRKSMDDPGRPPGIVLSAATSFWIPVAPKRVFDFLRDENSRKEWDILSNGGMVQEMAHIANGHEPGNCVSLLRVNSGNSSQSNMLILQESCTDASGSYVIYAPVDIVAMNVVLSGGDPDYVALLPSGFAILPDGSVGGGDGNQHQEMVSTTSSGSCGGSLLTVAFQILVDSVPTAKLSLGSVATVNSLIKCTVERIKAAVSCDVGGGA

T2: Halo:ATML1 (Arabidopsis thaliana, UniProt Q8RWU4 1-762)
T2 sequence: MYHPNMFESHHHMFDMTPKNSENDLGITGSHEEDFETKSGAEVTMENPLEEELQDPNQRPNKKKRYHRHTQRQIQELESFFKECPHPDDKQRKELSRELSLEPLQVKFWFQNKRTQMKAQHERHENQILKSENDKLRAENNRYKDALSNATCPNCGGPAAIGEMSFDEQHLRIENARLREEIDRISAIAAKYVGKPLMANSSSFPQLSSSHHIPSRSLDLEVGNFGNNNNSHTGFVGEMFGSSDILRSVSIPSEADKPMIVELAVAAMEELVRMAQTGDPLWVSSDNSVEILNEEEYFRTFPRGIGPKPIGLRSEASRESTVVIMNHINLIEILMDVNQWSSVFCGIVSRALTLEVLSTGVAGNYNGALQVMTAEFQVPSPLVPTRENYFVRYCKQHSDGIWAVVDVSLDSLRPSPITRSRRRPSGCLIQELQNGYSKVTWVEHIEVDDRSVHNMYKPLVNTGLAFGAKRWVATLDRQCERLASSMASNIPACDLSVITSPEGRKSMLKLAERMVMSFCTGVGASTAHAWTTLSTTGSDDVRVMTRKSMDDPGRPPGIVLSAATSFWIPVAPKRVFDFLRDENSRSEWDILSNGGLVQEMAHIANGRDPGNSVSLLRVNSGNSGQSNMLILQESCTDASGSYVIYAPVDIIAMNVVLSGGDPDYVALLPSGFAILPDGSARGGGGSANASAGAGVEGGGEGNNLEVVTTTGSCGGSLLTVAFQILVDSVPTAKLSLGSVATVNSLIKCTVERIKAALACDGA

T3: Halo:PDF2 (Arabidopsis thaliana, UniProt Q93V99 1-743)
T3 sequence: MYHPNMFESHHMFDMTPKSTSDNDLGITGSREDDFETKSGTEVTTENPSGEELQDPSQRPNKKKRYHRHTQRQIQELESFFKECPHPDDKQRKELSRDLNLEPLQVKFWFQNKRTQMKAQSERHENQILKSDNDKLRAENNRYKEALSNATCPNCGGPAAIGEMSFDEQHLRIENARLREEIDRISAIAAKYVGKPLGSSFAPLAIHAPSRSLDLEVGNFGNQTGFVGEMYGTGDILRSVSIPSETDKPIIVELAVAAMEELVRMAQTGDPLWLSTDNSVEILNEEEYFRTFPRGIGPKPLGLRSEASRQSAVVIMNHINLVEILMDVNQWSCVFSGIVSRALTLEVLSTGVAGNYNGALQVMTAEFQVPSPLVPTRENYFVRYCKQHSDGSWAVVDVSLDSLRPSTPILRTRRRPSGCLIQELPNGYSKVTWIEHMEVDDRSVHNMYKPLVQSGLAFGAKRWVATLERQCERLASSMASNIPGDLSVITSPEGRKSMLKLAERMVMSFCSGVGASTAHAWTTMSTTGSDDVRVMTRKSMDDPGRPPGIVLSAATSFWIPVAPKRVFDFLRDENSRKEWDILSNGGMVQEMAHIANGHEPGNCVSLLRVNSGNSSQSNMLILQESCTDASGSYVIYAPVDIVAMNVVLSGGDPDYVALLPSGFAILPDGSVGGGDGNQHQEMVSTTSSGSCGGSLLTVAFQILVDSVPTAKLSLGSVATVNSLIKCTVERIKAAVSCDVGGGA

T4: Halo:atml1ΔST (Arabidopsis thaliana, UniProt Q8RWU4 1-253+483-762, internal_change)
T4 sequence: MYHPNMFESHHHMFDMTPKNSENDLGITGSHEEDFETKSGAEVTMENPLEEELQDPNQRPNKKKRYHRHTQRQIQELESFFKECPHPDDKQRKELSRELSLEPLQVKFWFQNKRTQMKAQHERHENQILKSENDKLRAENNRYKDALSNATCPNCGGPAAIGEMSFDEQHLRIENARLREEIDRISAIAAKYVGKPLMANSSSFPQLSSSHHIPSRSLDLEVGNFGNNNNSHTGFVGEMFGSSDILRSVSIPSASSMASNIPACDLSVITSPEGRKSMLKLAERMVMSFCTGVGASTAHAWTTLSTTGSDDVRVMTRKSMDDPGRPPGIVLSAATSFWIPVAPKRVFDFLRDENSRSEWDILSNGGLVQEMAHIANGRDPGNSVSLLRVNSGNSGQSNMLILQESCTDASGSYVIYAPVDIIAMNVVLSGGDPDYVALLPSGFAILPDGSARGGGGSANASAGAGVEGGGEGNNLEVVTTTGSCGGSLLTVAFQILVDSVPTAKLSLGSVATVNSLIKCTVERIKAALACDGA

T5: Halo:pdf2ΔST (Arabidopsis thaliana, UniProt Q93V99 1-244+475-743, internal_change)
T5 sequence: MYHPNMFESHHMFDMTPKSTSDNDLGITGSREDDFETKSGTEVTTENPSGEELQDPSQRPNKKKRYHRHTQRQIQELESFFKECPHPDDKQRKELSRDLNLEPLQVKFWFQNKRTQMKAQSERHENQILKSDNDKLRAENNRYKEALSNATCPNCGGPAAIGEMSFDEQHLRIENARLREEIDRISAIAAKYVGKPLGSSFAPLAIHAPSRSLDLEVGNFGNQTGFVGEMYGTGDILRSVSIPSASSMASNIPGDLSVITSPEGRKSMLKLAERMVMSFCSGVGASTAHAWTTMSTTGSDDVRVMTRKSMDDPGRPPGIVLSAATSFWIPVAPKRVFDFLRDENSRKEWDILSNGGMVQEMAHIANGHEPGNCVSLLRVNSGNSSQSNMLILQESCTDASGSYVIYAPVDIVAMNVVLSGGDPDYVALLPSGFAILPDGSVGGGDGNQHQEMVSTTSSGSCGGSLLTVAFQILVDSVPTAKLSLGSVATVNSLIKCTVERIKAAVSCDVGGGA


What was measured:
native gel or EMSA = biological target: the molecule itself; experiment: native gel or EMSA
Halo:pdf2K107E = biological target: T1, Halo:pdf2K107E; experiment: EMSA
Halo:ATML1 = biological target: T2, Halo:ATML1; experiment: EMSA
Halo:PDF2 = biological target: T3, Halo:PDF2; experiment: EMSA
Halo:atml1ΔST = biological target: T4, Halo:atml1ΔST; experiment: EMSA
Halo:pdf2ΔST = biological target: T5, Halo:pdf2ΔST; experiment: EMSA

Binder	stoichiometry N (native gel or EMSA)	binding result (Halo:pdf2K107E)	binding result (Halo:ATML1)	binding result (Halo:PDF2)	binding result (Halo:atml1ΔST)	binding result (Halo:pdf2ΔST)
Halo:PDF2 (PROTODERMAL FACTOR2, full length, Halo-tagged) (natural protein, Arabidopsis thaliana, UniProt Q93V99 1-743, looked up) MYHPNMFESHHMFDMTPKSTSDNDLGITGSREDDFETKSGTEVTTENPSGEELQDPSQRPNKKKRYHRHTQRQIQELESFFKECPHPDDKQRKELSRDLNLEPLQVKFWFQNKRTQMKAQSERHENQILKSDNDKLRAENNRYKEALSNATCPNCGGPAAIGEMSFDEQHLRIENARLREEIDRISAIAAKYVGKPLGSSFAPLAIHAPSRSLDLEVGNFGNQTGFVGEMYGTGDILRSVSIPSETDKPIIVELAVAAMEELVRMAQTGDPLWLSTDNSVEILNEEEYFRTFPRGIGPKPLGLRSEASRQSAVVIMNHINLVEILMDVNQWSCVFSGIVSRALTLEVLSTGVAGNYNGALQVMTAEFQVPSPLVPTRENYFVRYCKQHSDGSWAVVDVSLDSLRPSTPILRTRRRPSGCLIQELPNGYSKVTWIEHMEVDDRSVHNMYKPLVQSGLAFGAKRWVATLERQCERLASSMASNIPGDLSVITSPEGRKSMLKLAERMVMSFCSGVGASTAHAWTTMSTTGSDDVRVMTRKSMDDPGRPPGIVLSAATSFWIPVAPKRVFDFLRDENSRKEWDILSNGGMVQEMAHIANGHEPGNCVSLLRVNSGNSSQSNMLILQESCTDASGSYVIYAPVDIVAMNVVLSGGDPDYVALLPSGFAILPDGSVGGGDGNQHQEMVSTTSSGSCGGSLLTVAFQILVDSVPTAKLSLGSVATVNSLIKCTVERIKAAVSCDVGGGA	2	–	–	–	–	–
L1-box probe (3x L1 motif) (dsDNA) DNA 1: GGGTACATTTATACATTTATACATTTAAAT DNA 2: ATTTAAATGTATAAATGTATAAATGTACCC	–	no binding	binds	binds	binds	binds
ATML1 (Arabidopsis thaliana MERISTEM LAYER1), wild type, protein of the EMSA (natural protein, UniProt Q8RWU4 1-762, looked up) MYHPNMFESHHHMFDMTPKNSENDLGITGSHEEDFETKSGAEVTMENPLEEELQDPNQRPNKKKRYHRHTQRQIQELESFFKECPHPDDKQRKELSRELSLEPLQVKFWFQNKRTQMKAQHERHENQILKSENDKLRAENNRYKDALSNATCPNCGGPAAIGEMSFDEQHLRIENARLREEIDRISAIAAKYVGKPLMANSSSFPQLSSSHHIPSRSLDLEVGNFGNNNNSHTGFVGEMFGSSDILRSVSIPSEADKPMIVELAVAAMEELVRMAQTGDPLWVSSDNSVEILNEEEYFRTFPRGIGPKPIGLRSEASRESTVVIMNHINLIEILMDVNQWSSVFCGIVSRALTLEVLSTGVAGNYNGALQVMTAEFQVPSPLVPTRENYFVRYCKQHSDGIWAVVDVSLDSLRPSPITRSRRRPSGCLIQELQNGYSKVTWVEHIEVDDRSVHNMYKPLVNTGLAFGAKRWVATLDRQCERLASSMASNIPACDLSVITSPEGRKSMLKLAERMVMSFCTGVGASTAHAWTTLSTTGSDDVRVMTRKSMDDPGRPPGIVLSAATSFWIPVAPKRVFDFLRDENSRSEWDILSNGGLVQEMAHIANGRDPGNSVSLLRVNSGNSGQSNMLILQESCTDASGSYVIYAPVDIIAMNVVLSGGDPDYVALLPSGFAILPDGSARGGGGSANASAGAGVEGGGEGNNLEVVTTTGSCGGSLLTVAFQILVDSVPTAKLSLGSVATVNSLIKCTVERIKAALACDGA	2	–	–	–	–	–
